# Positions count from the first letter of the chain named.
# B1: B. subtilis araT: Bacillus subtilis aromatic aminotransferase (araT, SEQ ID NOS: 9 and 10) (protein, listed as Bacillus subtilis)
# chain: MEHLLNPKAREIEISGIRKFSNLVAQHEDVISLTIGQPDFFTPHHVKAAAKKAIDENVTSYTPNAGYLELRQAVQLYMKKKADFNYDAESEIIITTGASQAIDAAFRTILSPGDEVIMPGPIYPGYEPIINLCGAKPVIVDTTSHGFKLTARLIEDALTPNTKCVVLPYPSNPTGVTLSEEELKSIAALLKGRNVFVLSDEIYSELTYDRPHYSIATYLRDQTIVINGLSKSHSMTGWRIGFLFAPKDIAKHILKVHQYNVSCASSISQKAALEAVTNGFDDALIMREQYKKRLDYVYDRLVSMGLDVVKPSGAFYIFPSIKSFGMTSFDFSMALLEDAGVALVPGSSFSTYGEGYVRLSFACSMDTLREGLDRLELFVLKKREAMQTINNGV
# B2: R. sphaeroides 2.4.1 tatA: Rhodobacter sphaeroides strain 2.4.1 tyrosine aminotransferase (SEQ ID NOS: 3 and 4) (protein)
# chain: MRSTTAPGPSGACMTISRSRKDDEGMLTALKPQPADKILQLIQMFREDARADKIDLGVGVYKDPTGLTPVMRAVKAAEKRLWEVETTKTYTGLADEPAYNAAMAKLILAGAVPADRVASVATPGGTGAVRQALELIRMASPEATVWISNPTWPNHLSIVKYLGIPMREYRYFDAETGAVDAEGMMEDLAQVKAGDVVLLHGCCHNPTGANPNPVQWLAICESLARTGAVPLIDLAYQGFGDGLEMDAAATRLLATRLPEVLIAASCSKNFGIYRERTGILIAIGEAAGRGTVQANLNFLNRQNYSFPPDHGARLVTMILEDETLSADWKAELEEVRLNMLTLRRQLADALQAETGSNRFGFVAEHRGMFSRLGITPAEVERLRTEHGVYMVGDSRLNIAGLNRTTVPVLARAVAKVLRG
# modifications: Rhodobacter sphaeroides
# B3: R. sphaeroides 35053 tatA: R. sphaeroides 35053 tyrosine aminotransferase (SEQ ID NOS: 5 and 6) (protein)
# chain: B2 chain with D95G, M184L, I219V
# modifications: Rhodobacter sphaeroides
# B4: E. coli aspC: Escherichia coli aspartate aminotransferase (aspC) (protein, UniProt P00509 1-396, looked up)
# Aspartate aminotransferase: MFENITAAPADPILGLADLFRADERPGKINLGIGVYKDETGKTPVLTSVKKAEQYLLENETTKNYLGIDGIPEFGRCTQELLFGKGSALINDKRARTAQTPGGTGALRVAADFLAKNTSVKRVWVSNPSWPNHKSVFNSAGLEVREYAYYDAENHTLDFDALINSLNEAQAGDVVLFHGCCHNPTGIDPTLEQWQTLAQLSVEKGWLPLFDFAYQGFARGLEEDAEGLRAFAAMHKELIVASSYSKNFGLYNERVGACTLVAADSETVDRAFSQMKAAIRANYSNPPAHGASVVATILSNDALRAIWEQELTDMRQRIQRMRQLFVNTLQEKGANRDFSFIIKQNGMFSFSGLTKEQVLRLREEFGVYAVASGRVNVAGMTPDNMAPLCEAIVAVL
# Test: tryptophan aminotransferase activity, production of indole-pyruvic acid
# Assay type: biochemical
# Settings: cell extracts (CE); 5 mM L-tryptophan, 30 minutes at 30° C.
# Procedure: Cell extracts were analyzed by SDS-PAGE, and assayed for tryptophan aminotransferase activity by following production of indole-pyruvic acid using the following protocol. One mL reactions were carried out in 50 mM sodium tetraborate (pH 8.5), 0.5 mM EDTA, 0.5 mM sodium arsenate, 50 μM pyridoxal phosphate, 5 mM α-ketoglutarate, and 5 mM L-tryptophan. The reactions were initiated by the addition of cell free extracts or purified enzyme and were incubated 30 minutes at 30° C. 20% TCA (200 μL) was added to stop the reaction, and the precipitated protein was removed by centrifugation. The absorbance at 327 nm was measured and compared to a standard curve of freshly prepared indole-3-pyruvate in the assay buffer. Control reactions without the substrate tryptophan or using cell-free extracts from clones transformed with pET30a alone were also performed.
# Due to background from the native E. coli aminotransferases in cell extracts, the recombinant fusion proteins each containing an aminotransferase protein fused to the pET30 amino terminal HIS6-Tag/S-Tag (6×HIS tag disclosed as SEQ ID NO: 90) were purified using immobilized metal affinity chromatography with His-Bind cartridges following manufacturer's protocols (Novagen, Madison, Wis.). The HIS6-Tag sequence (SEQ ID NO: 90) of the fusion proteins binds to the divalent Ni^2+ cations immobilized on IDA-based His-Bind resin. The eluent fractions were desalted on PD-10 (Amersham Biosciences, Piscataway, N.J.) columns and eluted in 50 mM Tris, pH 7.0. Purified proteins were analyzed by SDS-PAGE and assayed for aminotransferase activity.
# Table 1 lists the specific activities measured in micrograms of indole-3-pyruvate (I3P) formed per milligram protein per minute. […] In these cases a ‘>’ precedes the specific activity number.
row,Molecule,Specific Activity [μg I3P/mg protein/min]
1,B1,0
2,B2,>41.2
3,B3,>62.3

# Same assay, conditions: purified (P); 5 mM L-tryptophan, 30 minutes at 30° C.
row,Molecule,Specific Activity
1,B4,800 μg I3P/mg protein/min
2,B1,1.5–4.5 μg I3P/mg protein/min
3,B2,1086 μg I3P/mg protein/min
4,B3,>486 μg I3P/mg protein/min

# Same assay, conditions: recombinant clones expressed in E. coli
row,Molecule,tryptophan aminotransferase activity (in words)
1,B4,significant levels of tryptophan aminotransferase activity
2,B1,little enzymatic activity

# Source: patent US8206955B2, “Production of monatin and monatin precursors” (Cargill, Incorporated, priority 2003, dated 2012)
